Three molecules from patent US6958322 can be followed below.

The test system of data set [1] is recombinant factor X wild type (rFX).
For data set [2], the target named is purified plasma factor IX (Stago) (UniProt P00740).
Data set [3] addresses corresponding murine coagulation proteins. Briefly: cell-based or functional assay.
The target is the same in data set [4].

Sequence of UniProt P00740 (P00740 whole entry, looked up): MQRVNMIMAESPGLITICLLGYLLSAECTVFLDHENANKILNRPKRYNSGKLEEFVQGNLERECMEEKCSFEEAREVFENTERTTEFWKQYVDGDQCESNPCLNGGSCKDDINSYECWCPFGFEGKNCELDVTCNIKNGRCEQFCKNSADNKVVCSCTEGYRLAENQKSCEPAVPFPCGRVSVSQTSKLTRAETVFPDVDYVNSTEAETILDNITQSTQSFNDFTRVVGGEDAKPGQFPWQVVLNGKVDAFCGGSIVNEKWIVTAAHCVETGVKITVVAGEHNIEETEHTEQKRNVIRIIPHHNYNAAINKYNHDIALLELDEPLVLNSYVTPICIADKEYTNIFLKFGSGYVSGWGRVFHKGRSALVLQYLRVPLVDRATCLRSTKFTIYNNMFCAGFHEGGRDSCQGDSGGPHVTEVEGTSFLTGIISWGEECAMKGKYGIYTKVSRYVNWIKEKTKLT

As for purified factor XIa, the “cleavage / in vitro activation, Western blot” value in the data set on rFX/FXIa (Q-R/I) analog is “after an incubation time of 1 h at 37 °C in the presence of CaCl2, the reaction batch of FXIa, with rFX/FXIa (Q-R/I) as a substrate, shows protein bands of approximately 36 kD and 32 kD which resemble the activated alpha and beta forms (aHCa and bHCa) of the heavy chain of FX”. Moreover, in data set [1], the “cleavage, Western blot (negative control)” value is recorded as “compared to rFX in the absence of FXIa, no change for rFX is visible in the protein pattern after incubation with FXIa”. Moreover, the “cleavage / conversion into activated forms, Western blot” value in data set [2] is “The conversion of FIX into the activated forms (FIXa and FIXb)”.

B1: rFX/FXIa (Q-R/I) analog, P00742 41-179; P00742 183-488 (enzyme)
light: ANSFLEEMKKGHLERECMEETCSYEEAREVFEDSDKTNEFWNKYKDGDQCETSPCQNQGKCKDGLGEYTCTCLEGFEGKNCELFTRKLCSLDNGDCDQFCHEEQNSVVCSCARGYTLADNGKACIPTGPYPCGKQTLER
heavy: SVAQATSSSGEAPDSITWKPYDAADLDPTENPFDLLDFNQTQPEQSFNDFTRIVGGQECKDGECPWQALLINEENEGFCGGTILSEFYILTAAHCLYQAKRFKVRVGDRNTEQEEGGEAVHEVEVVIKHNRFTKETYDFDIAVLRLKTPITFRMNVAPACLPERDWAESTLMTQKTGIVSGFGRTHEKGRQSTRLKMLEVPYVDRNSCKLSSSFIITQNMFCAGYDTKQEDACQGDSGGPHVTRFKDTYFVTGIVSWGESCARKGKYGIYTKVTAFLKWIDRSMKTRGLPKAKSHAPEVITSSPLK
For the molecule B1, in data set [3], the Coagulation Time in sec. (aPTT, FIX-def. mouse plasma + rfX/fXIa(Q-R/I)) was found to be 48.6 s and the Coagulation Time in sec. (aPTT, FVIII-def. mouse plasma + rfX/fXIa(Q-R/I)) amounted to 52.5 s.

B2: rFX/FXIa (Q-R/I) analog (protein)
chain 1: ANSFLEEMKKGHLERECMEETCSYEEAREVFEDSDKTNEFWNKYKDGDQCETSPCQNQGKCKDGLGEYTCTCLEGFEGKNCELFTRKLCSLDNGDCDQFCHEEQNSVVCSCARGYTLADNGKACIPTGPYPCGKQTLER
chain 2: SVAQATSSSGEAPDSITWKPYDAADLDPTENPFDLLDFNQTQPEQSFNDFTRIVGGQECKDGECPWQALLINEENEGFCGGTILSEFYILTAAHCLYQAKRFKVRVGDRNTEQEEGGEAVHEVEVVIKHNRFTKETYDFDIAVLRLKTPITFRMNVAPACLPERDWAESTLMTQKTGIVSGFGRTHEKGRQSTRLKMLEVPYVDRNSCKLSSSFIITQNMFCAGYDTKQEDACQGDSGGPHVTRFKDTYFVTGIVSWGESCARKGKYGIYTKVTAFLKWIDRSMKTRGLPKAKSHAPEVITSSPLK
B2: in data set [4], the % Activity in mouse plasma (aPTT, FIX-def. plasma + rfX/fXIa(Q-R/I)) worked out at 166% and the % Activity in mouse plasma (aPTT, FVIII-def. plasma + rfX/fXIa(Q-R/I)) amounted to 97%.
